Test [1] concerns the target soluble DR 2a (DRB5*0101) molecules isolated from L cells transfectant L416.3 (human) (UniProt P01903).
For test [2], the target named is soluble DR4 (DRB1*0401) class II molecules purified from BSM or PREISS EBV-B cells (human) (UniProt P01903). Put plainly: peptide competition ELISA, soluble DR 4, biotinylated indicator UD4. For orientation: ELISA stands for enzyme-linked immunosorbent assay.
In test [3] the target is soluble DR 1 (DRB1*0101) class II molecules purified from HOM-2 EBV-B cells (human) (UniProt P01903). The test can be described thus: peptide competition ELISA, soluble DR 1, biotinylated indicator GFK(A)7.
In test [4] the target is soluble DR 8 (DRB1*0801) class II molecules purified from BM9 EBV-B cells (human) (UniProt P01903). The test can be described thus: peptide competition ELISA, soluble DR 8, biotinylated indicator GYR(A)6L.
The target in test [5] is soluble DR 11 (DRB1*1101) class II molecules purified from SWEIG EBV-B cells (human) (UniProt P01903). Put plainly: peptide competition ELISA, soluble DR 11, biotinylated indicator TT831-843.
Test [6] has as its target soluble DR 7 (DRB1*0701) class II molecules purified from EKR EBV-B cells (human) (UniProt P01903). Put plainly: peptide competition ELISA, soluble DR 7, biotinylated indicator GFK(A)7, pH 5.

As a reminder, the IC50 is the concentration at which inhibition is half-maximal. The low end stands for higher potency, the high end for lower potency.

Consider “HA307-319 peptide derived from influenza hemagglutinin”, for which the IC50 in test [1] was found to be 30 nM; in test [2], 1000 nM; in test [3] it was 100 nM; in test [4], 5000 nM; in test [5], 1000 nM; in test [6], 100 nM.

(Values after patent US20050249750A1.)
